Data from patent US20120100160A1.

Target: murine LFA-1 (on TK1/TK-1 cells or primary murine splenocytes) (murine) (UniProt P24063)
Experiment: cell-based or functional assay

Sequence of UniProt P24063 (P24063 24-1162, chain 1 of 2): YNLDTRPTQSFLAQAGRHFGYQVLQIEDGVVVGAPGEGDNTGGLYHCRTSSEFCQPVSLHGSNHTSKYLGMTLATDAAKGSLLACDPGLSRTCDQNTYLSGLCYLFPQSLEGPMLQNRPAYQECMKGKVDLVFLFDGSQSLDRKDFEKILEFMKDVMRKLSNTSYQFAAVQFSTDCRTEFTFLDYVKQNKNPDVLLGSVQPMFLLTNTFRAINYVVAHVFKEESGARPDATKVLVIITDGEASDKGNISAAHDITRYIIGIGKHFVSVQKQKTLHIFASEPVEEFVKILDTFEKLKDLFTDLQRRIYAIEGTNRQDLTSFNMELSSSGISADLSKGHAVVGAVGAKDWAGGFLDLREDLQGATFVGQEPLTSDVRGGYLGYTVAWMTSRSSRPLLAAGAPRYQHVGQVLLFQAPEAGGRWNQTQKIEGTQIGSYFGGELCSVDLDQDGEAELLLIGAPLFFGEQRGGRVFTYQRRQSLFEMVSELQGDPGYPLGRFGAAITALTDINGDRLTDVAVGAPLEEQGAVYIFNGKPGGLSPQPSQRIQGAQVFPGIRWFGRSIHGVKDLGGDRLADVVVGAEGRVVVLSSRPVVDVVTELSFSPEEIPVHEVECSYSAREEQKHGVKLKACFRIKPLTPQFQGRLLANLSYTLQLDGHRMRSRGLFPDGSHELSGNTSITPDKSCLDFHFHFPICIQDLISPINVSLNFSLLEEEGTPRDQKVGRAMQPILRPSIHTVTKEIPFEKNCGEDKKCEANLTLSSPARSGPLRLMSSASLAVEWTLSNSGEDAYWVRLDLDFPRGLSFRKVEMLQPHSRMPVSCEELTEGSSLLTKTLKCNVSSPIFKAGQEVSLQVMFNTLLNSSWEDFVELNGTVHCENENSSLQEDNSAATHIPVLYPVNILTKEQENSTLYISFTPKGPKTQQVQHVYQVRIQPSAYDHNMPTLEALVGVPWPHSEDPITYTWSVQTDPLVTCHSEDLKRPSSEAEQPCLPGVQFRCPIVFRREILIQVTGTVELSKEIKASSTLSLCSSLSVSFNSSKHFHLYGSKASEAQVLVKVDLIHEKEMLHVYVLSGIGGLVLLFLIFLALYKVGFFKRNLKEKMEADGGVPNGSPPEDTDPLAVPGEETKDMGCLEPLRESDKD
Sequence of UniProt P24063 (P11835 24-771, chain 2 of 2, further chain): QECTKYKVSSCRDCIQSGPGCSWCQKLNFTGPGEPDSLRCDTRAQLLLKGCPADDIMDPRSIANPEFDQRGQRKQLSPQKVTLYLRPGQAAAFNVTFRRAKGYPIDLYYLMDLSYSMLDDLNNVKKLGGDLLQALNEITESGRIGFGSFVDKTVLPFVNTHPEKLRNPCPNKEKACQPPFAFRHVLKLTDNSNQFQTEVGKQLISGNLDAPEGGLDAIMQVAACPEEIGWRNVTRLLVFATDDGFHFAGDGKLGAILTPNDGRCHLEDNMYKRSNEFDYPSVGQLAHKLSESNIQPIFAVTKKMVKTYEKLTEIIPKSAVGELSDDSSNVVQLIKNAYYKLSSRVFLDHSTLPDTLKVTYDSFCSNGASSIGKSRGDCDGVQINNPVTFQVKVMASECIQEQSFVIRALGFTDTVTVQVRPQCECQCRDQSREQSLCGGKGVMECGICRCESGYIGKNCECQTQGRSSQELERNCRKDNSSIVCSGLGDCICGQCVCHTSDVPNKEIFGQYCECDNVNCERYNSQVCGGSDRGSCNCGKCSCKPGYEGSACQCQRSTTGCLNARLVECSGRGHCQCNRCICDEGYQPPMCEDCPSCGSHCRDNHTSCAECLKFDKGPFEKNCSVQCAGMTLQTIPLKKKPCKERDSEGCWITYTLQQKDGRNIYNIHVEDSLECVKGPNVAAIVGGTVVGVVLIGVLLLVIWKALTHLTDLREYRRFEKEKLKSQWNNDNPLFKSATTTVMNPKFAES

- CD45 knockdown in TK-1 cells: subpopulation of CD45-low cells at the 6:1 ratio of siRNA to fusion protein: 14%
Substance: multimerized ICAM-1-protamine fusion protein (80 pmoles fusion protein with 10 pmoles anti-Fc Fab′2)
